Positions count from the first letter of the chain named.

Test [1] has as its target T1, human C5a (source not stated) (human, UniProt P01031 678-751).
T1 sequence: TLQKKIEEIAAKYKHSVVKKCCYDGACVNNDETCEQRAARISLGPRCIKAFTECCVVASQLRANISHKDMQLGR
In words: cell-based or functional assay.

The target in a further test is T2, human endogenous C5a (human, UniProt P01031 678-751, limits assumed).
T2 sequence: T1 sequence
In words: cell-based or functional assay.

The target in a further test is T3, C5a-T1A.
T3 single chain: T1 sequence with T1A
The experiment in a line: ELISA on the coated C5a protein, antibody titrated, OD410. (In general: In an ELISA, binding on a coated surface is turned into a signal by an enzyme label.)

The target of a further test is T4, C5a-L2A.
T4 single chain: T1 sequence with L2A
Described as above.

The target of another test is T5, C5a-Q3A.
T5 single chain: T1 sequence with Q3A
The description is as above.

The target of a further test is T6, C5a-K4A.
T6 single chain: T1 sequence with K4A
Described as above.

The target of another test is T7, C5a-K5A.
T7 single chain: T1 sequence with K5A
The test is described as above.

The target of the next test is T8, C5a-E7A.
T8 single chain: T1 sequence with E7A
Described as above.

For a further test, the target named is T9, C5a-E8A.
T9 single chain: T1 sequence with E8A
The description is as above.

Another test deals with T10, C5a-K12A.
T10 single chain: T1 sequence with K12A
The test is described as above.

In another test the target is T11, C5a-N30A.
T11 single chain: T1 sequence with N30A
The test is described as above.

For the next test, the target named is T12, C5a-T33A.
T12 single chain: T1 sequence with T33A
The description is as above.

In a further test the target is T13, C5a-E35A.
T13 single chain: T1 sequence with E35A
Described as above.

For another test, the target named is T14, C5a-Q36A.
T14 single chain: T1 sequence with Q36A
The test is described as above.

For the next test, the target named is T15, C5a-R62A.
T15 single chain: T1 sequence with R62A
The test is described as above.

For another test, the target named is T16, C5a-S66A.
T16 single chain: T1 sequence with S66A
Described as above.

For another test, the target named is T17, C5a-D69A.
T17 single chain: T1 sequence with D69A
The description is as above.

The next test concerns the target T18, C5a-M70A.
T18 single chain: T1 sequence with M70A
The test is described as above.

The target of the next test is T19, C5a-Q71A.
T19 single chain: T1 sequence with Q71A
The description is as above.

The target in test [2] is T1, human C5a (source not stated). The experiment in a line: ELISA on the coated protein, biotinylated Cab42 titrated, SA-HRP, OD410.
The target in test [3] is T20, native full-length human complement component C5 (human, UniProt P01031 19-673; P01031 678-1676).
T20 construct: mature; The native protein has two disulfide-linked chains (alpha and beta) made from one precursor; also called human native C5
T20 sequence (P01031 19-673 limits assumed, one chain of several): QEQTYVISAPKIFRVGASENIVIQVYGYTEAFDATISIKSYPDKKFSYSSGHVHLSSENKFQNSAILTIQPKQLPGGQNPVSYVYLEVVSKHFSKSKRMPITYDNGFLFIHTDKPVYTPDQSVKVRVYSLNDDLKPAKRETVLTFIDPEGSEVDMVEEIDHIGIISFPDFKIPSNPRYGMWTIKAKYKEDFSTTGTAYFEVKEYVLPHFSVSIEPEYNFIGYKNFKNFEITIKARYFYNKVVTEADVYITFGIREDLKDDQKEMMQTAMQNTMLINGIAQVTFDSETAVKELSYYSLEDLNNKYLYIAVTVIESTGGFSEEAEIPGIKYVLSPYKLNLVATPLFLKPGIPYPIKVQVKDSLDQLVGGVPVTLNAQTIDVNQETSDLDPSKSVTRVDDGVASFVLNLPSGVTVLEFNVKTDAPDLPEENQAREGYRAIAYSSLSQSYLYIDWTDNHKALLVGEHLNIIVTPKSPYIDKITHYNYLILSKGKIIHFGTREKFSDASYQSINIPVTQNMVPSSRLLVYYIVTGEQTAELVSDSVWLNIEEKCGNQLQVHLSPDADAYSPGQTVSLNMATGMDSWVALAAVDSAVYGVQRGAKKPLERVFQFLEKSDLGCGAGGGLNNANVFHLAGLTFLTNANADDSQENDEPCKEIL
In words: ELISA, plate coated with human native C5, full-length antibody titrated, OD410.

B1: Cab42-IgG1 (antibody, V domains shown)
VH: EMQLVESGGGLVQPGGSLRLSCAASGFTFSDYYMQWVRQAPGKGPEWVGLIRNKAVGETTQYAASVKGRFTISRDDSKNSVYLQMNSLKTEDTAVYYCVSRAGPPGLSWGQGVLVTVSS
VL: DIVMTQSPLSLPVTPGEPASISCRSSQSLLASDAYNYIDWYLQKPGQSPQLLIYGGSNRASGVPDRFSGSGSGTDFTLKISRVEAEDVGVYFCLQHRALPPTFGQGTKLEIK
notes: Full-length human IgG1; It was biotinylated in the peptide-Fc ELISA
Regarding B1, the “ROS IC50” value in test [1] was found to be 0.78 nM. For the same molecule, in the test with human endogenous C5a, the “eC5a IC50(nM), CD11b up-regulation on human neutrophils in whole blood” value was found to be 2.05 nM. In addition, the “eC5a+50*C5 IC50(nM), CD11b up-regulation on human neutrophils in whole blood with 50 times more C5” value in the test with human endogenous C5a came out at 31 nM. For the same molecule, the binding result with C5a-T1A, with C5a-L2A, with C5a-Q3A, in the test with C5a-K4A, with C5a-K5A and with C5a-E7A was “binds” throughout. Also, the binding result in the test with C5a-E8A, with C5a-K12A, with C5a-N30A, in the test with C5a-T33A, with C5a-E35A and with C5a-Q36A was “binds” in each case. The binding result with C5a-R62A, in the test with C5a-S66A, with C5a-D69A, with C5a-M70A and with C5a-Q71A was “binds” throughout. Further, the results for the “EC50 (read off the curve)” value in [2] and in [3] were ~30 ng/w and ~10 ng/mL, respectively.

The record behind these values is patent publication US20230257454A1 (STAIDSON BEIJING BIOPHARMACEUTICALS, published 2023).
